Measurements reported in the nanobody polyreactivity screen of Harvey et al. (2022).

Test: yeast display, Sf9 membrane polyspecificity reagent, FACS + sequencing; frameworks hold sequencing errors
How it was run: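 Nanobodies from a synthetic yeast display library (Saccharomyces cerevisiae BJ5465), induced 36–48 hours with galactose, were stained 1 hour at 4 °C with 10% biotinylated, detergent-solubilized Sf9 membrane reagent, enriched on streptavidin microbeads, then FACS-sorted. Anti-HA (expression) and streptavidin (reagent binding) fluorescence set low and high (top ~1%) gates. Polyreactivity labels come from the gate of origin. Genes were colony-PCR amplified, MiSeq 2 × 250 sequenced and filtered by CDR length.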

Sequence | polyreactivity (PSR sort gate)
QVQLVESGGGLVQAGGSLRLSCAASGFTFGVYAMGWYRQAPGKERELVAAITWSGGRTYYADSVKGRFTISRDNAKNTVYLQMNSLKPEDTAVYYCAAVFYRYNAVRYDYWGQGTQVTVSS | high polyreactivity
QVQLVESGGGLVQAGGSLRLSCAASGFTFGVYAMGWYRQAPGKERELVATISSSGSTNYADSVKGRFTISRDNAQNPVYLQMNSLKPEDTAVYYCAVYYLYRRRQYYYWGQGTQVTVSS | low polyreactivity
QVQLVESGGGLVQAGGSLRLSCAASGFTFGWNAMGWYRQAPGKERELVAAITSGGITNYADSVKGRFTISRDNAKNTVYLQMNSLKPEDTAVYYCNARPTSRRSWYYWKGYDYWGQGTQVTVSS | high polyreactivity
QVQLVESGGGLVQAGGSLRLSCAASGFTFGWYAMGWYRPAPGKERELVAAITTSGGRTNYADSVKGRFTISRDNAKNTVYLQMNSLKPEDTAVYYCNADSPYYVGGFDYWGQGTQVTVSS | low polyreactivity
QVQLVESGGGLVQAGGSLRLSCAASGFTFGWYAMGWYRQSPGKERELVAAISYSGGSTYYADSVKGRFTISRDNAKNTVYLQMNSLKPEDTAVYYCNAVLRLRVDSWGQGTQVTVSS | high polyreactivity
QVQLVESGGGLVQAGGSLRLSCAASGFTFGYNDMGWYRQAPGKERELVAGIRSGDDTNYADSVKGRFTISRDNAKNTVYLQMNSLKPEDTAVYYCAVGYGDYLYYDYDYWGQGTQVTVSS | low polyreactivity
QVQLVESGGGLVQAGGSLRLSCAASGFTFGYNEMGWYRQAQGKERELVAGIRSGDDTNYADSVKGRFTISRDNAKNTVYLQMNSLKPEDTAVYYCPRDPQFYLHTVPDGAYNYWGQGTQVTVSS | low polyreactivity
QVQLVESGGGLVQAGGSLRLSCAASGFTFGYYAMGWYRQAPGKERELVAAISWSGSSTYYSDSVKGRFTISRDNAKNTVYLQMNSLKPEATAVYYCAAELGDAYYYWGQGTQVTVSS | high polyreactivity
QVQLVESGGGLVQAGGSLRLSCAASGFTFGYYAMGWYRQAPGKERELVAAITNSGGSTYYADSVKGRFTISRDNAKNTVYLQMNSLKPEDTAVYYCAAEISILPFVTPDTIYGYWGQGTQVTVSS | low polyreactivity
QVQLVESGGGLVQAGGSLRLSCAASGFTFGYYAMGWYRQAPGKERELVAAITWSGGRTYYADSVKGRFTISRDNAKNTVYLQMNSLKPEDTAVYYCAVETLWQGSEYWGQGTQVTVSS | low polyreactivity
QVQLVESGGGLVQAGGSLRLSCAASGFTFGYYAMGWYRQAPGKERELVATISYGGGSTYYADSVKGRFTISRDNAKNTVYLQMNSLKPEDSAVYYCAASYLVQAPVSGYVYRMYYWGQGTQVTVSS | high polyreactivity
QVQLVESGGGLVQAGGSLRLSCAASGFTFGYYGMGWYRQAPGKERELVAAISWSGGSTYYADSVKGRFTISRDNAKNTVYLQMNSLKPEDTAVDYCNADYAGFYQRRYIEDDYWGQGTQVTVSS | low polyreactivity
QVQLVESGGGLVQAGGSLRLSCAASGFTFGYYVMGWYRQAPGKERELVAAITSGGSTYYADSVKGRFTISRDNAKNTVYLQMNSLKREDTAVYYCNKYGVVLPGFDYWGQGTQVTVSS | high polyreactivity
QVQLVESGGGLVQAGGSLRLSCAASGFTFHDYAMGWYRQAPGKERELVAAITKSGGRTYYADSVKGRFTISRDNAKNTVYLQMNSLKPEDTAVYYCAAASYRSQYDYYYWGQGTQVTVSS | high polyreactivity
QVQLVESGGGLVQAGGSLRLSCAASGFTFHDYVMAWYRQAPGKERELVAAISRSGGSTYYADSVKGRFTISRDNAKHTVYLQMNSLIPEDTAVYYCAAREYTTGGWRYNYWGQGTQVTVSS | high polyreactivity
QVQLVESGGGLVQAGGSLRLSCAASGFTFHNYAMGWYRQAPGKERDFVAAITRNTASTYYADSVKGRFTISRDNAKNTVYLQMNSLKPEDTAVYYCNASRVVYRQAYLYGYDYWGQGTQVTVSS | low polyreactivity

Sequence | polyreactivity (PSR sort gate)
QVQLVESGGGLVQAGGSLRLSCAASGFTFHNYAMGWYRQAPGKEREFVAAITRNTASTYYADSVKGRFTISRDNAKNTVYLQMNSLNPEDTAVYYCAATDKKHRTAYDSWGQGTQVTVSS | low polyreactivity
QVQLVESGGGLVQAGGSLRLSCAASGFTFHVYAMGWSRQAPGKERELVAAISTGDDTTFYADSVKGRLTISRDNAKNTVYLQMNSLKPEDTAVYYCAAAYGTPYGGYDYWGQGTQVTVSS | low polyreactivity
QVQLVESGGGLVQAGGSLRLSCAASGFTFHYYTMGWYRQAPGKEREFVAAISKSGGRTYYADSVKGRFTISRDNAKNTVYLQMNSLKPEDTAVYYCATVGYWRNRHDYWGQGTQVTVSS | high polyreactivity
QVQLVESGGGLVQAGGSLRLSCAASGFTFIFNAMGWYRQAPGKERELVATISWGGGSTYYADSVKGRFTISRDNAKNTVYLQMNSLKPEDTAVYYCNADGYTLWYEYDYWGQGTQVTVSS | low polyreactivity
QVQLVESGGGLVQAGGSLRLSCAASGFTFIGNAMGWYRQAPGKERELVAAISSSGGRTYYADSVKGRFTISRDNAKNTVDLQMNSLKPEDTAVYYCATRQYRGVYYWGQGTQVTVSS | high polyreactivity
QVQLVESGGGLVQAGGSLRLSCAASGFTFIGYAMGWYRQAPGKEREFVAAITSGGSTYYADSVKGRFTISRDNAKNTVYLQMNSLKPEDTAVYYCAARSVYTASYRRVWINPQLDYWGQGTQVTVSS | high polyreactivity
QVQLVESGGGLVQAGGSLRLSCAASGFTFIGYAMGWYRQAPGKERELVAAITISGGSTYYADSVKGRFTISRDNAKNTVYLQMNSLKPEDTAVYYCNVYRLAAFYSLRGYRYDYWGQGTQVTVSS | high polyreactivity
QVQLVESGGGLVQAGGSLRLSCAASGFTFIQYDMGWYRQAPGKERELVAAISSSGGSTYYADSVNGRFTISRDNAKNTFYLQMNSLKPEDTGVYYCAADPWVRLEYDYWGQGTQVTVSS | low polyreactivity
QVQLVESGGGLVQAGGSLRLSCAASGFTFIRNAMGWYRPAPGKERELVAAISTSGGTTYYADSVKGRFTISRDNAKNTVYLQMNSLKPEDTAVYYCNKGIGRSDPDYRYYYWGQGTQVTVSS | high polyreactivity
QVQLVESGGGLVQAGGSLRLSCAASGFTFIRNAMGWYRQAPGKERELVAAISKRGGSTNYADSVKGRFTISRDNAKTTVYLLMNSLKPEDTAVYYCAADVDTRSSSGYWGQGTQVTVSS | low polyreactivity
QVQLVESGGGLVQAGGSLRLSCAASGFTFIRYAMGWYRQAPGKERELVARITSGGSTYYADSVKGRFTISRDNAKNTVYLQMNSLKPEDTAVYYCNADKWYIIQGYYWPGYEYWGQGTQVTVSS | low polyreactivity
QVQLVESGGGLVQAGGSLRLSCAASGFTFIRYAMGWYSQAAGKDRELVARITSSGSSTYADSVKGRFTISRDKAKNTVYLQMNSLKPEDTAVYYCAAKVHTRRRFDYWGQGTQVTVSS | high polyreactivity
QVQLVESGGGLVQAGGSLRLSCAASGFTFISNAMGWYRKAPGKERELVAAISSSGGRTYYADSVKGRFTISRDNAKNTVYLQMNSLKPEDTAVYYCNADRSLLYSRKIEYDYWGQGTQVTVSS | low polyreactivity
QVQLVESGGGLVQAGGSLRLSCAASGFTFISYGMGWYRQAPGKEREFVAAISYSGTGTYYADSVKVRFTISRDNAKNTVYLQMNSLKPEDTAVYYCAVYSRDFRRYDYWGQGTQVTVSS | high polyreactivity
QVQLVESGGGLVQAGGSLRLSCAASGFTFIWYAMGWYRQAPGKETELVATISWNGGRTYYADSVKGRFTISRDNANNTVYLQMNSLKPEDTAVYYCAADQGVYRTYWFDYWGQGTQVAVSS | high polyreactivity
